In paper PMC11461855 (Nature Communications, 2024):

Target: T1, mMED15-FLAG (Flag-tagged mouse Med15) (mouse, UniProt Q924H2 1-789)
T1 sequence: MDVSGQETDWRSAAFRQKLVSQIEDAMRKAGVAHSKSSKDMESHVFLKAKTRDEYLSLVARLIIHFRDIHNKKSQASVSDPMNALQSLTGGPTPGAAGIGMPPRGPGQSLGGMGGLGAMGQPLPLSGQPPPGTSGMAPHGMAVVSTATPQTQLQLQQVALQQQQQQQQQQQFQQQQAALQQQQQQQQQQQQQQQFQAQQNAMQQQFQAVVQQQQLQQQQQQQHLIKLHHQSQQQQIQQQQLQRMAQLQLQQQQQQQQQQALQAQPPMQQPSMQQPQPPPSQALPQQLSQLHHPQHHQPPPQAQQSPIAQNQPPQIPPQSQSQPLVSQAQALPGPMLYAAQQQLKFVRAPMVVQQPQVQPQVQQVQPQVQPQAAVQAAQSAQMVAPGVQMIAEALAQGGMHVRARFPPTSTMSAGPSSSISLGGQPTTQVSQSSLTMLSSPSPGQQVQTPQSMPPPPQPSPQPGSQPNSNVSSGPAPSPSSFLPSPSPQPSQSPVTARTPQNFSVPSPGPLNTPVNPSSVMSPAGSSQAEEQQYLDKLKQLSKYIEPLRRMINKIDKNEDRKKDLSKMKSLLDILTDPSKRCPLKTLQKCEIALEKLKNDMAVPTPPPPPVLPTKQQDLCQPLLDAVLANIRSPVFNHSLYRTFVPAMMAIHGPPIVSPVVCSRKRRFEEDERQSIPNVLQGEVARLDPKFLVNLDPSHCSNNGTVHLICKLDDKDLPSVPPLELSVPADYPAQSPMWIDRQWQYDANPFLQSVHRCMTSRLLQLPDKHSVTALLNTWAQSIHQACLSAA
Assay: pull-down

binding result: binds
B1: HA-mNKX6.1 (HA-tagged full-length mouse Nkx6-1) (natural protein)
chain: MLAVGAMEGPRQSAFLLSSPPLAALHSMAEMKTPLYPAAYPPLPTGPPSSSSSSSSSSSPSPPLGSHNPGGLKPPAAGGLSSLGSPPQQLSAATPHGINDILSRPSMPVASGAALPSASPSGSSSSSSSSASATSASAAAAAAAAAAAAAASSPAGLLAGLPRFSSLSPPPPPPGLYFSPSAAAVAAVGRYPKPLAELPGRTPIFWPGVMQSPPWRDARLACTPHQGSILLDKDGKRKHTRPTFSGQQIFALEKTFEQTKYLAGPERARLAYSLGMTESQVKVWFQNRRTKWRKKHAAEMATAKKKQDSETERLKGTSENEEDDDDYNKPLDPNSDDEKITQLLKKHKSSGGSLLLHASEAEGSS
